Source: publication PMC5913352

Target: T1, PhoP (non-phosphorylated) (Escherichia coli ExPEC (APEC) FY26 (O2:K1, ST95)?) (UniProt Q8CXZ9)
T1 sequence: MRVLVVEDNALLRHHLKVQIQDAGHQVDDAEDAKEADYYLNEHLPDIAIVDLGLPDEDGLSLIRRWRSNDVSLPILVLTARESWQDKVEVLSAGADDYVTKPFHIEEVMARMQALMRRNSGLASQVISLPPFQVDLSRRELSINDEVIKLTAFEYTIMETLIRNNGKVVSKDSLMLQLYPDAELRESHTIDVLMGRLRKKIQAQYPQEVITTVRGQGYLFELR
Experiment: EMSA

Sequence: CAGGACTGAAACGCTTCCTTCATGTTGGTACTGCTATGTCTTGTACACCTCATACGGGGTCGCTAGTTAAGGAAGAGTCTGCTTCATCAGAAACAGGTGAACATTTAGTGGAGTATACGCATTCAAAAGCAACAATAGAATATCTGATGCGTAAGCAGTGTCCTGATTTACCTTTGTTGGTTGCCCGACCATCAATTATT (double strand)
- binding: no binding
